# Laboratory results taken from IntAct's records for PubMed 10835346.
# B1: Dolichol phosphate-mannose biosynthesis regulatory protein (Rattus norvegicus (Rat)), Q9Z325 (parent)
# chain: MATGTDQAVGFGLVAVSLIIFTYYTTWVILLPFIDSQHVIHKYFLPRAYAVLLPLAAGLLLLLFVGLFITYVLLKSQKVTKKAQ
# partner: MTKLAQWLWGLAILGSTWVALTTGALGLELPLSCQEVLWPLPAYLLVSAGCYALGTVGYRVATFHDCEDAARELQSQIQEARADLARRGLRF
# Variants of: B1
# Conditions: with dpm3_human DPM3, Q9P2X0
row,effect of a mutation on the interaction,Variant
1,decreasing interaction,MATGTDQAVGFGLVAVSLIILTSYTTWVILLPFIDSQHVIHKYFLPRAYAVLLPLAAGLLLLLFVGLFITYVLLKSQKVTKKAQ [F21L;Y23S]
